Where a chain is given by its changes, count along the chain named. Numbers in names are those of the source.
B1: purified PC-TP (natural protein, human)
chain: MELAAGSFSEEQFWEACAELQQPALAGADWQLLVETSGISIYRLLDKKTGLYEYKVFGVLEDCSPTLLADIYMDSDYRKQWDQYVKELYEQECNGETVVYWEVKYPFPMSNRDYVYLRQRRDLDMEGRKIHVILARSTSMPQLGERSGVIRVKQYKQSLAIESDGKKGSKVFMYYFDNPGGQIPSWLINWAAKNGVPNFLKDMARACQNYLKKT
notes: PC-TP coding region in pMCSG7; the structure of PC-TP solved here is PDB 7U9D; 0.01% soy lecithin was added to the cultures at induction; also called LTP; source: E. coli BL21 DE3, purified (IMAC, Superdex 75 SEC)
B2: PC-TP R78E, split nano-luciferase (nano-PCA) fusion (natural protein, human, UniProt Q9UKL6 1-214, looked up)
chain: B1 chain with R78E
notes: source: Huh7, transfected, in cells
B3: PC-TP R120H, split nano-luciferase (nano-PCA) fusion (natural protein, human, UniProt Q9UKL6 1-214, looked up)
chain: B1 chain with R120H
notes: as for B2
B4: PC-TP Y114R, split nano-luciferase (nano-PCA) fusion (natural protein, human, UniProt Q9UKL6 1-214, looked up)
chain: B1 chain with Y114R
notes: as for B2

Legend:
[1] = biological target: T1, purified PPARδ ligand-binding domain (LBD), Cy5-labelled (human, Cy5 fluorophore (NHS) on lysine amines)
T1 chain: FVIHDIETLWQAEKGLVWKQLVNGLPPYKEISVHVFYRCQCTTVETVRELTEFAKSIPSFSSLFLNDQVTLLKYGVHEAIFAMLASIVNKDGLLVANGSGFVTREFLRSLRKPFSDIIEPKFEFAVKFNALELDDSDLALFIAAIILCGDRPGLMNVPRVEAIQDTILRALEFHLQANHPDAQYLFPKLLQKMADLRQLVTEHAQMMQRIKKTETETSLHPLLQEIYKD

[2] = biological target: T2, purified full-length PPARδ, Cy5-labelled (human, UniProt Q03181 1-441, Cy5 fluorophore (NHS) on lysine amines); test: temperature related intensity change (TRIC); 50 nM Cy5-labelled FL-PPARδ or PPARδ LBD with LTPs (10 µM-610 pM), overnight at 4 °C; 20 mM Hepes pH 8.3, 200 mM NaCl, 5% glycerol, 0.05% tween-20, 0.5 mM TCEP; Dianthus NT.23 Pico; conditions: both partners purified
T2 construct: Full-length PPARδ in PSMT3 vector; also called FL-PPARδ; full-length (FL) PPARδ; source: E. coli BL21 DE3, purified (IMAC, Capto S and Capto Q, Superdex 75 SEC)
T2 sequence (looked up): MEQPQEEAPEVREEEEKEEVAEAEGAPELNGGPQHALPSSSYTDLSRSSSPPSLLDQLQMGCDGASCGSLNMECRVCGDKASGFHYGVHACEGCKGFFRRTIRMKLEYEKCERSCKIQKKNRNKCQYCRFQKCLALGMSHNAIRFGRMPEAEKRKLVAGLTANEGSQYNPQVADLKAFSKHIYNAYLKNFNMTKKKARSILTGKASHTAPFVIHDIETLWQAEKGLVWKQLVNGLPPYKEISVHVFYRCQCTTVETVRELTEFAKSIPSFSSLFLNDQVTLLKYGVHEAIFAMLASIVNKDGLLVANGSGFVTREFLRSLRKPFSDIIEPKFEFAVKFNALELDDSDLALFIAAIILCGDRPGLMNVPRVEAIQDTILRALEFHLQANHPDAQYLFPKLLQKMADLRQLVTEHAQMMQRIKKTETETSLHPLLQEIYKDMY

[3] = biological target: T3, full-length PPARδ, split nano-luciferase (nano-PCA) fusion (human, UniProt Q03181 1-441); test: split reporter (BiFC, NanoBiT); nano-PCA in transfected Huh7 cells (100 ng/well of each fusion); fresh culture media or DMEM F-12 with 0.5% serum (mutant panel in 0.5% serum); signal normalized to the highest negative control; conditions: partners not purified
T3 construct: wild-type human PPARδ, printed as residues 1-470; The clones of the HEK293T screen are not described; also called FL-PPARδ; intact PPARδ; source: HEK293T (screen) and Huh7, transfected, in cells
T3 sequence (looked up): T2 sequence (looked up)

Kd [1] [µM]	Kd [2] [nM]	percent decrease of the interaction relative to wild-type PC-TP [3] [%]	Binder
4.23	~2400		B1
		~45	B2
		~45	B3
		~45	B4
